# B1: hHv1-Cysless (His-EK-hHv1-C107A-C249A), human voltage-gated proton channel (natural protein, UniProt Q96D96 1-273, looked up)
# chain: MATWDEKAVTRRAKVAPAERMSKFLRHFTVVGDDYHAWNINYKKWENEEEEEEEEQPPPTPVSGEEGRAAAPDVAPAPGPAPRAPLDFRGMLRKLFSSHRFQVIIIALVVLDALLVLAELILDLKIIQPDKNNYAAMVFHYMSITILVFFMMEIIFKLFVFRLEFFHHKFEILDAVVVVVSFILDIVLLFQEHQFEALGLLILLRLWRVARIINGIIISVKTRSERQLLRLKQMNVQLAAKIQHLEFSASEKEQEIERLNKLLRQHGLLGEVN
# notes: human voltage-gated proton channel (hHv1), full-length, with C107A and C249A (Cysless); Construct name His-EK-hHv1 in pET15-b; 'EK' between the His tag and hHv1 is probably an enterokinase site (surmised); no cleavage step is described; also called No TAG; control; source: E. coli BL21-Gold(DE3), purified (Ni-NTA in Anzergent 3-12, FSEC)
# Biological target: the molecule itself
# Assay: SEC; SEC-cleaned No TAG hHv1 injected at several concentrations on an ENrich SEC 650 column in Buffer-H2 (50 mM Tris, 150 mM NaCl, 12 mM Anz3-12, pH 8.0); compared with a run in denaturing buffer (50 mM Tris, pH 8.0, 150 mM NaCl, 0.2% SDS); Ex/Em = 280/350 nm
protein,measurement,value
B1,stoichiometry N,2

# From article PMC13124150, “Interrogating the structure and function of the human voltage-gated proton channel (hHv1) with a fluorescent noncanonical amino acid” (eLife, 2026)
